Literature values in US20060234299A1, “Protein scaffolds and uses thereof” (Avidia Research Institute, priority 2004, published 2006).

settings: commercial drugs

In order of rising “Human T½” value:
1. Rituxan: CD20 Antibody  78 h
2. Enbrel  103 h
3. Remicade: TNFa Antibody  216 h
